Data published in paper PMC5663490 (PLoS ONE, 2017).

T1: HMunc18c (mouse, UniProt Q60770 1-592)
T1 construct: pQE30 vector; also called Munc18-3; source: E. coli BL21 with GroEL/ES chaperones, purified (Ni2+ resin, SEC, MonoS if required); not shown: His6, N-terminal, kept
T1 sequence (looked up): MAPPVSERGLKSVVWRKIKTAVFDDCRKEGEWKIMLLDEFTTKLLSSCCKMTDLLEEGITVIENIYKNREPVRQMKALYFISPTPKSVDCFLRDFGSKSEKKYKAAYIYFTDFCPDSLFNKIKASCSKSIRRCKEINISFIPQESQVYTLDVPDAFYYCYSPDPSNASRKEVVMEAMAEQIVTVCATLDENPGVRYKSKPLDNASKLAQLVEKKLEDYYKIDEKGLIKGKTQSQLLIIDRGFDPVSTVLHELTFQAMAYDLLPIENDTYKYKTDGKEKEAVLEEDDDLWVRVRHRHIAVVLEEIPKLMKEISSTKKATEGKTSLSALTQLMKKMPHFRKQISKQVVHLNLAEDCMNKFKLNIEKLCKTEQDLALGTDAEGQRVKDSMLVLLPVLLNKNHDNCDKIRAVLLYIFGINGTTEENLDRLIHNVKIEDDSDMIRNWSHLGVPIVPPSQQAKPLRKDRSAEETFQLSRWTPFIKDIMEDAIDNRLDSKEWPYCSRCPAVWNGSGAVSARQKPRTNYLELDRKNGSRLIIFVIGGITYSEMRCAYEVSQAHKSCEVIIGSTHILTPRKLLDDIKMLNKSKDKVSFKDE

B1: Sx4_(1-275)-His (domain or fragment, rat, UniProt Q08850 1-275, looked up)
chain: MRDRTHELRQGDNISDDEDEVRVALVVHSGAARLSSPDDEFFQKVQTIRQTMAKLESKVRELEKQQVTILATPLPEESMKQGLQNLREEIKQLGREVRAQLKAIEPQKEEADENYNSVNTRMKKTQHGVLSQQFVELINKSNSMQSEYREKNVERIRRQLKITNAGMVSDEELEQMLDSGQSEVFVSNILKDTQVTRQALNEISARHSEIQQLERSIRELHEIFTFLATEVEMQGEMINRIEKNILSSADYVERGQEHVKIALENQKKARKKKVM
notes: cloned into pET20b; also called Syntaxin4; not shown: His6, C-terminal, kept

What was measured:
HMunc18c (mouse) = HMunc18c (mouse) (UniProt Q60770); assay: ITC; Munc18 proteins (HMunc18c or Munc18a-His) at 10–20 μM with Syntaxin partners at 100–550 μM; 298 K; 25 mM HEPES pH 8, 200 mM NaCl, 2 mM β-mercaptoethanol, 10% glycerol; 16 injections of 2.45 μL; which partner was in the syringe is not said
HMunc18c = biological target: T1, HMunc18c; assay: as above; details: both partners purified

Molecule	Kd (HMunc18c (mouse))	dH (HMunc18c (mouse))	stoichiometry N (HMunc18c (mouse))	Kd (HMunc18c)	dH (HMunc18c)	stoichiometry N (HMunc18c)
Sx1_(1-261)-His (from UniProt P32851 1-261) (domain or fragment)	80 nM	-15.2 kcal/mol	1.03			
ΔNSx1_(25-261)-His (from UniProt P32851 25-261) (domain or fragment)	730000 nM	-4.44 kcal/mol	1.07			
B1				100 nM	-14.1 kcal/mol	1.03
